Data on six molecules can be found in article PMC10345426, “Structural polymorphism of the PH domain in TFIIH” (Bioscience Reports, 2023).

For orientation: Kd means the equilibrium constant for the complex coming apart.

Where two headings read alike, the source gives them in different places.

For assay [1], the target named is TFIIH p62 PH (Homo sapiens) (UniProt P32780). Conditions: cited from earlier work.
For assay [2] the target is unchanged. As to conditions: cited from earlier work. The source holds these as a separate data set.
In assay [3] the target is TFIIH Tfb1 PH (Saccharomyces cerevisiae) (UniProt P32776). Conditions: cited from earlier work.
The target in assay [4] is T1, PH domain of fission yeast (Schizosaccharomyces pombe) Tfb1, residues 1-108 (Schizosaccharomyces pombe, UniProt O13745 1-108).
T1 construct: General transcription and DNA repair factor IIH subunit tfb1 (spTfb1), Schizosaccharomyces pombe, UniProt name TFB1_SCHPO, N-terminal PH domain, residues 1-108; 15N-labelled in the NMR titration; Residues of the vector may be left at the N-terminus after thrombin cleavage (surmised); also called spPH; spPH domain; source: E. coli BL21-Gold (DE3), pET15b, purified (His-tag resin, thrombin …)
T1 sequence (looked up): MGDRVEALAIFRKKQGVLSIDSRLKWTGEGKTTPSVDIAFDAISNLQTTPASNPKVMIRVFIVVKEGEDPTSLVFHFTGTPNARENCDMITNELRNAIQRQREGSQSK
The experiment in a line: ITC; VP-ITC; syringe 300 uM peptide, cell 2 ml of 30 uM spPH domain; 25 x 20 ul injections; 20 mM potassium phosphate pH 6.8, 20°C. As to conditions: both partners purified. In general terms: ITC needs no label: the signal is the heat of the interaction.

Sequence of TFIIH p62 PH (Homo sapiens) (P32780 1-108): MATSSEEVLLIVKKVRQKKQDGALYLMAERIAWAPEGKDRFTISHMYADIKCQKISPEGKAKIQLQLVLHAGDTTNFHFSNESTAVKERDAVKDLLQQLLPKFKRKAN
Sequence of TFIIH Tfb1 PH (Saccharomyces cerevisiae) (P32776 1-115): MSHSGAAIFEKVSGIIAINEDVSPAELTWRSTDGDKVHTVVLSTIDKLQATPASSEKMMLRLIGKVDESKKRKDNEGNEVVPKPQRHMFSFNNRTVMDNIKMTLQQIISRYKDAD

Consider “TFIIEα acidic domain (from UniProt P29083)”, for which the Kd in assay [1] was 95 nM.
On to “hXPC acidic string (from UniProt Q01831)”, for which the Kd in assay [2] is 58 nM.
For “scRad4 acidic string (from UniProt P14736)”, the dissociation constant (Kd) in assay [3] was 50 nM.

B1: spTfa1(416-434) peptide, C-terminal acidic segment of fission yeast Tfa1 (peptide, UniProt Q9P3W1 416-434, looked up)
peptide: NGFNEDDEDDEDEADFEDV
notes: Tfa1 (homologue of human TFIIEalpha), Schizosaccharomyces pombe, residues 416-434; source: synthetic peptide, bought: GenScript
Turning to B1, binding in assay [4] was put at a Kd of 12.4 ± 6.5 nM.

B2: spTfa1(332-350) peptide, acidic segment of fission yeast Tfa1 (peptide, UniProt Q9P3W1 332-350, looked up)
peptide: DSENVDDEEDDDFLDVTTA
notes: source: synthetic peptide, bought: GenScript
As for B2, the dissociation constant Kd in assay [4] is 148 ± 41.3 nM.

B3: spRhp41(4-22) peptide, N-terminal acidic string of fission yeast Rhp41 (peptide, UniProt Q10445 4-22, looked up)
peptide: DEDNTYSDDEEWLDLDLGL
notes: Rhp41 (homologue of human XPC and S. cerevisiae Rad4), Schizosaccharomyces pombe, residues 4-22 (holds Trp15, Leu16, Leu18, Leu20, Leu22); source: synthetic peptide, bought: GenScript
For the molecule B3, the dissociation constant (Kd) in assay [4] is 52.1 ± 13.5 nM.
